According to patent publication US20210139548A1 (published 2021):
Blank lines part the entries; values can stand above or below the binder they belong to. *1 amine or outer side, *2 acyl side, *3 side chain or, on linkers, in order; H or OH if unused. Side-chain parts run from the residue outwards. The star is where a group is joined. C18 diacid = O=C(O)CCCCCCCCCCCCCCCCC(=O)*; γGlu = O=C(O)[C@H](CCC(=O)[*:2])N[*:1]; Isovaleryl = CC(C)CC(=O)*; AEEA = NCCOCCOCC(=O)O

Target: T1, human neuropeptide Y2 receptor (human, UniProt P49146 1-381)
T1 construct: whole, on cells; also called hNPY2 receptor; hNPY2-R
T1 sequence (looked up): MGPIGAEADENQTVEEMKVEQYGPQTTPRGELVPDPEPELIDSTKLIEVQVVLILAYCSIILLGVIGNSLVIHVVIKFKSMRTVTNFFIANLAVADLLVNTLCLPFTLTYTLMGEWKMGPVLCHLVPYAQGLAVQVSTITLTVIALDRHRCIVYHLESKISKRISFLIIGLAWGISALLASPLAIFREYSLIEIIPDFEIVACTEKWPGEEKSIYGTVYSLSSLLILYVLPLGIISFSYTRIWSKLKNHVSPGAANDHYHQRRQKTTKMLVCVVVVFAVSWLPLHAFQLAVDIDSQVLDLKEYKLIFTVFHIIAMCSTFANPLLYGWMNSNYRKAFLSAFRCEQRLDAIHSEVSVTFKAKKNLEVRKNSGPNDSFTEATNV
Experiment: radioligand competition (125I-PYY(1-36)), hNPY2R membranes
In short: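 Commercial human Y2 receptor membranes (0.5 μg protein/well) were incubated with peptide for 2 h at room temperature in 50 mM HEPES, 5 mM MgCl₂, 1 mM CaCl₂, pH 7.4, with 0.2% ovalbumin. Bound radioligand was separated on PEI-soaked GF/C filters and counted by scintillation, and IC₅₀ came from nonlinear sigmoidal regression.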

Ki: 0.66 nM
B4: Compound 95 (peptide)
peptide: Isovaleryl-APEK([AEEA-AEEA-γGlu-C18 diacid])PEEDASPAEIQRYYVSLRHYYNWLTRQRY-NH2
SMILES: CC[C@H](C)[C@H](NC(=O)[C@H](CCC(=O)O)NC(=O)[C@H](C)NC(=O)[C@@H]1CCCN1C(=O)[C@H](CO)NC(=O)[C@H](C)NC(=O)[C@H](CC(=O)O)NC(=O)[C@H](CCC(=O)O)NC(=O)[C@H](CCC(=O)O)NC(=O)[C@@H]1CCCN1C(=O)[C@H](CCCCNC(=O)COCCOCCNC(=O)COCCOCCNC(=O)CC[C@H](NC(=O)CCCCCCCCCCCCCCCCC(=O)O)C(=O)O)NC(=O)[C@H](CCC(=O)O)NC(=O)[C@@H]1CCCN1C(=O)[C@H](C)NC(=O)CC(C)C)C(=O)N[C@@H](CCC(N)=O)C(=O)N[C@@H](CCCNC(=N)N)C(=O)N[C@@H](Cc1ccc(O)cc1)C(=O)N[C@@H](Cc1ccc(O)cc1)C(=O)N[C@H](C(=O)N[C@@H](CO)C(=O)N[C@@H](CC(C)C)C(=O)N[C@@H](CCCNC(=N)N)C(=O)N[C@@H](Cc1c[nH]cn1)C(=O)N[C@@H](Cc1ccc(O)cc1)C(=O)N[C@@H](Cc1ccc(O)cc1)C(=O)N[C@@H](CC(N)=O)C(=O)N[C@@H](Cc1c[nH]c2ccccc12)C(=O)N[C@@H](CC(C)C)C(=O)N[C@H](C(=O)N[C@@H](CCCNC(=N)N)C(=O)N[C@@H](CCC(N)=O)C(=O)N[C@@H](CCCNC(=N)N)C(=O)N[C@@H](Cc1ccc(O)cc1)C(N)=O)[C@@H](C)O)C(C)C

Ki: 0.44 nM
B5: Compound 100 (peptide)
peptide: Isovaleryl-APAK([AEEA-AEEA-γGlu-C18 diacid])PPEDASPEELQRYYVSLRHYYNWLTRQRY-NH2
SMILES: CC(C)CC(=O)N[C@@H](C)C(=O)N1CCC[C@H]1C(=O)N[C@@H](C)C(=O)N[C@@H](CCCCNC(=O)COCCOCCNC(=O)COCCOCCNC(=O)CC[C@H](NC(=O)CCCCCCCCCCCCCCCCC(=O)O)C(=O)O)C(=O)N1CCC[C@H]1C(=O)N1CCC[C@H]1C(=O)N[C@@H](CCC(=O)O)C(=O)N[C@@H](CC(=O)O)C(=O)N[C@@H](C)C(=O)N[C@@H](CO)C(=O)N1CCC[C@H]1C(=O)N[C@@H](CCC(=O)O)C(=O)N[C@@H](CCC(=O)O)C(=O)N[C@@H](CC(C)C)C(=O)N[C@@H](CCC(N)=O)C(=O)N[C@@H](CCCNC(=N)N)C(=O)N[C@@H](Cc1ccc(O)cc1)C(=O)N[C@@H](Cc1ccc(O)cc1)C(=O)N[C@H](C(=O)N[C@@H](CO)C(=O)N[C@@H](CC(C)C)C(=O)N[C@@H](CCCNC(=N)N)C(=O)N[C@@H](Cc1c[nH]cn1)C(=O)N[C@@H](Cc1ccc(O)cc1)C(=O)N[C@@H](Cc1ccc(O)cc1)C(=O)N[C@@H](CC(N)=O)C(=O)N[C@@H](Cc1c[nH]c2ccccc12)C(=O)N[C@@H](CC(C)C)C(=O)N[C@H](C(=O)N[C@@H](CCCNC(=N)N)C(=O)N[C@@H](CCC(N)=O)C(=O)N[C@@H](CCCNC(=N)N)C(=O)N[C@@H](Cc1ccc(O)cc1)C(N)=O)[C@@H](C)O)C(C)C

Ki: 2.07 nM
B6: Compound 94 (peptide)
peptide: Isovaleryl-APEK([AEEA-AEEA-γGlu-C18 diacid])PEEDASPEETQRYYVELRHYYNWLTRQRY-NH2
SMILES: CC(C)CC(=O)N[C@@H](C)C(=O)N1CCC[C@H]1C(=O)N[C@@H](CCC(=O)O)C(=O)N[C@@H](CCCCNC(=O)COCCOCCNC(=O)COCCOCCNC(=O)CC[C@H](NC(=O)CCCCCCCCCCCCCCCCC(=O)O)C(=O)O)C(=O)N1CCC[C@H]1C(=O)N[C@@H](CCC(=O)O)C(=O)N[C@@H](CCC(=O)O)C(=O)N[C@@H](CC(=O)O)C(=O)N[C@@H](C)C(=O)N[C@@H](CO)C(=O)N1CCC[C@H]1C(=O)N[C@@H](CCC(=O)O)C(=O)N[C@@H](CCC(=O)O)C(=O)N[C@H](C(=O)N[C@@H](CCC(N)=O)C(=O)N[C@@H](CCCNC(=N)N)C(=O)N[C@@H](Cc1ccc(O)cc1)C(=O)N[C@@H](Cc1ccc(O)cc1)C(=O)N[C@H](C(=O)N[C@@H](CCC(=O)O)C(=O)N[C@@H](CC(C)C)C(=O)N[C@@H](CCCNC(=N)N)C(=O)N[C@@H](Cc1c[nH]cn1)C(=O)N[C@@H](Cc1ccc(O)cc1)C(=O)N[C@@H](Cc1ccc(O)cc1)C(=O)N[C@@H](CC(N)=O)C(=O)N[C@@H](Cc1c[nH]c2ccccc12)C(=O)N[C@@H](CC(C)C)C(=O)N[C@H](C(=O)N[C@@H](CCCNC(=N)N)C(=O)N[C@@H](CCC(N)=O)C(=O)N[C@@H](CCCNC(=N)N)C(=O)N[C@@H](Cc1ccc(O)cc1)C(N)=O)[C@@H](C)O)C(C)C)[C@@H](C)O

More lines, now with the values behind:

B1: Compound 89 (peptide)
peptide: Isovaleryl-APEK([AEEA-AEEA-γGlu-C18 diacid])PEEEAEPEELQRYYVSLRHYYNWLTRQRY-NH2
SMILES: CC(C)CC(=O)N[C@@H](C)C(=O)N1CCC[C@H]1C(=O)N[C@@H](CCC(=O)O)C(=O)N[C@@H](CCCCNC(=O)COCCOCCNC(=O)COCCOCCNC(=O)CC[C@H](NC(=O)CCCCCCCCCCCCCCCCC(=O)O)C(=O)O)C(=O)N1CCC[C@H]1C(=O)N[C@@H](CCC(=O)O)C(=O)N[C@@H](CCC(=O)O)C(=O)N[C@@H](CCC(=O)O)C(=O)N[C@@H](C)C(=O)N[C@@H](CCC(=O)O)C(=O)N1CCC[C@H]1C(=O)N[C@@H](CCC(=O)O)C(=O)N[C@@H](CCC(=O)O)C(=O)N[C@@H](CC(C)C)C(=O)N[C@@H](CCC(N)=O)C(=O)N[C@@H](CCCNC(=N)N)C(=O)N[C@@H](Cc1ccc(O)cc1)C(=O)N[C@@H](Cc1ccc(O)cc1)C(=O)N[C@H](C(=O)N[C@@H](CO)C(=O)N[C@@H](CC(C)C)C(=O)N[C@@H](CCCNC(=N)N)C(=O)N[C@@H](Cc1c[nH]cn1)C(=O)N[C@@H](Cc1ccc(O)cc1)C(=O)N[C@@H](Cc1ccc(O)cc1)C(=O)N[C@@H](CC(N)=O)C(=O)N[C@@H](Cc1c[nH]c2ccccc12)C(=O)N[C@@H](CC(C)C)C(=O)N[C@H](C(=O)N[C@@H](CCCNC(=N)N)C(=O)N[C@@H](CCC(N)=O)C(=O)N[C@@H](CCCNC(=N)N)C(=O)N[C@@H](Cc1ccc(O)cc1)C(N)=O)[C@@H](C)O)C(C)C
Ki: 9.61 nM

B2: Compound 92 (peptide)
peptide: Isovaleryl-APEK([AEEA-AEEA-γGlu-C18 diacid])PEEDTSPEELQRYYVSLRHYYNWLTRQRY-NH2
SMILES: CC(C)CC(=O)N[C@@H](C)C(=O)N1CCC[C@H]1C(=O)N[C@@H](CCC(=O)O)C(=O)N[C@@H](CCCCNC(=O)COCCOCCNC(=O)COCCOCCNC(=O)CC[C@H](NC(=O)CCCCCCCCCCCCCCCCC(=O)O)C(=O)O)C(=O)N1CCC[C@H]1C(=O)N[C@@H](CCC(=O)O)C(=O)N[C@@H](CCC(=O)O)C(=O)N[C@@H](CC(=O)O)C(=O)N[C@H](C(=O)N[C@@H](CO)C(=O)N1CCC[C@H]1C(=O)N[C@@H](CCC(=O)O)C(=O)N[C@@H](CCC(=O)O)C(=O)N[C@@H](CC(C)C)C(=O)N[C@@H](CCC(N)=O)C(=O)N[C@@H](CCCNC(=N)N)C(=O)N[C@@H](Cc1ccc(O)cc1)C(=O)N[C@@H](Cc1ccc(O)cc1)C(=O)N[C@H](C(=O)N[C@@H](CO)C(=O)N[C@@H](CC(C)C)C(=O)N[C@@H](CCCNC(=N)N)C(=O)N[C@@H](Cc1c[nH]cn1)C(=O)N[C@@H](Cc1ccc(O)cc1)C(=O)N[C@@H](Cc1ccc(O)cc1)C(=O)N[C@@H](CC(N)=O)C(=O)N[C@@H](Cc1c[nH]c2ccccc12)C(=O)N[C@@H](CC(C)C)C(=O)N[C@H](C(=O)N[C@@H](CCCNC(=N)N)C(=O)N[C@@H](CCC(N)=O)C(=O)N[C@@H](CCCNC(=N)N)C(=O)N[C@@H](Cc1ccc(O)cc1)C(N)=O)[C@@H](C)O)C(C)C)[C@@H](C)O
Ki: 1.57 nM

B3: Compound 90 (peptide)
peptide: Isovaleryl-APEK([AEEA-AEEA-γGlu-C18 diacid])PEEDASPEELQRYEVSLRHYYNWLTRQRY-NH2
SMILES: CC(C)CC(=O)N[C@@H](C)C(=O)N1CCC[C@H]1C(=O)N[C@@H](CCC(=O)O)C(=O)N[C@@H](CCCCNC(=O)COCCOCCNC(=O)COCCOCCNC(=O)CC[C@H](NC(=O)CCCCCCCCCCCCCCCCC(=O)O)C(=O)O)C(=O)N1CCC[C@H]1C(=O)N[C@@H](CCC(=O)O)C(=O)N[C@@H](CCC(=O)O)C(=O)N[C@@H](CC(=O)O)C(=O)N[C@@H](C)C(=O)N[C@@H](CO)C(=O)N1CCC[C@H]1C(=O)N[C@@H](CCC(=O)O)C(=O)N[C@@H](CCC(=O)O)C(=O)N[C@@H](CC(C)C)C(=O)N[C@@H](CCC(N)=O)C(=O)N[C@@H](CCCNC(=N)N)C(=O)N[C@@H](Cc1ccc(O)cc1)C(=O)N[C@@H](CCC(=O)O)C(=O)N[C@H](C(=O)N[C@@H](CO)C(=O)N[C@@H](CC(C)C)C(=O)N[C@@H](CCCNC(=N)N)C(=O)N[C@@H](Cc1c[nH]cn1)C(=O)N[C@@H](Cc1ccc(O)cc1)C(=O)N[C@@H](Cc1ccc(O)cc1)C(=O)N[C@@H](CC(N)=O)C(=O)N[C@@H](Cc1c[nH]c2ccccc12)C(=O)N[C@@H](CC(C)C)C(=O)N[C@H](C(=O)N[C@@H](CCCNC(=N)N)C(=O)N[C@@H](CCC(N)=O)C(=O)N[C@@H](CCCNC(=N)N)C(=O)N[C@@H](Cc1ccc(O)cc1)C(N)=O)[C@@H](C)O)C(C)C
Ki: 1.6 nM
